Reference: article PMC9482650, “Quantitative fragmentomics allow affinity mapping of interactomes” (Nature Communications, 2022)

T1: APBA1_1, Q02410
T1 sequence (Q02410 651-752, limits assumed, looked up): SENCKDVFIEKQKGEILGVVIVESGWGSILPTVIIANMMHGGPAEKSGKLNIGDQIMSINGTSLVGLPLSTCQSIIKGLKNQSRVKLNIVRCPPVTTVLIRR

T2: APBA1_2, Q02410
T2 sequence (Q02410 742-832, limits assumed, looked up): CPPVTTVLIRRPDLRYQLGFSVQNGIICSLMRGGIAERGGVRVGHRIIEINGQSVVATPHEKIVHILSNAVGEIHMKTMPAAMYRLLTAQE

T3: DVL3, Q92997
T3 sequence (Q92997 244-331, limits assumed, looked up): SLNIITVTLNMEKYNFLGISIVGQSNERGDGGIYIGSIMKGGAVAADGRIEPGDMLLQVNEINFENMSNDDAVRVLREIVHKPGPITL

T4: GRIP1_5, Q9Y3R0
T4 sequence (Q9Y3R0 568-668, limits assumed, looked up): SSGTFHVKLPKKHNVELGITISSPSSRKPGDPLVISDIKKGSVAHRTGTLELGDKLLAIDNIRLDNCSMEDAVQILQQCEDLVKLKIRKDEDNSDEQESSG

T5: LIN7C, Q9NUP9
T5 sequence (Q9NUP9 88-185, limits assumed, looked up): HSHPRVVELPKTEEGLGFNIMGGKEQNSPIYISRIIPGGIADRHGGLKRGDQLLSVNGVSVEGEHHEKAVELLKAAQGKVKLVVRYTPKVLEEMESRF

T6: LNX2_3, Q8N448
T6 sequence (Q8N448 463-564, limits assumed, looked up): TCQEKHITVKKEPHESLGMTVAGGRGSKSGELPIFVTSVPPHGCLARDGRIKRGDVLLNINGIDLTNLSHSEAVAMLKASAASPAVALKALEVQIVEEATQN

T7: MPDZ_12, O75970
T7 sequence (O75970 1857-1958, limits assumed, looked up): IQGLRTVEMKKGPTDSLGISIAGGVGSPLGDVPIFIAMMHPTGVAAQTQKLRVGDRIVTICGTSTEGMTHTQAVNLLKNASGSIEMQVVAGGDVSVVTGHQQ

T8: NHERF3_4, Q5T2W1
T8 sequence (Q5T2W1 373-468, limits assumed, looked up): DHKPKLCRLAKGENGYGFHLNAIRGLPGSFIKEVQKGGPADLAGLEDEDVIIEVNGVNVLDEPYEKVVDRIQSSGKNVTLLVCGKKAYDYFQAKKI

T9: PDZD2_2, O15018
T9 sequence (O15018 329-429, limits assumed, looked up): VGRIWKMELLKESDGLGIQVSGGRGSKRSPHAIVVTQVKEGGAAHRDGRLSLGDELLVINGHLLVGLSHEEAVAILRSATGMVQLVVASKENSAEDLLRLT

T10: SNTG1, Q9NSN8
T10 sequence (Q9NSN8 52-150, limits assumed, looked up): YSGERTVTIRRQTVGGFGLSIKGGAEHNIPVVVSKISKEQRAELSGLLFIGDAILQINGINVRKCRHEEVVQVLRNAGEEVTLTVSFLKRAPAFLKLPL

T11: SNTG2, Q9NY99
T11 sequence (Q9NY99 68-166, limits assumed, looked up): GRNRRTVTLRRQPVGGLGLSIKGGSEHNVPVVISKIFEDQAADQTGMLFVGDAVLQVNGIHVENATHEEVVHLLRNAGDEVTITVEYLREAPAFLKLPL


Experiments:
Assay in all cases: holdup assay
Set-up in all cases: key: below the threshold = too weak to quantify, mostly under pKd 3.1 to 4
Details in all cases: plain residues with an end cap or a label only (N-terminal biotin on a linker: ado-ado)
APBA1_1, Q02410 = biological target: T1, APBA1_1, Q02410
APBA1_2, Q02410 = biological target: T2, APBA1_2, Q02410
DLG1_1, Q12959 = biological target: DLG1_1, Q12959
DLG4_1, P78352 = biological target: DLG4_1, P78352
DLG4_3, P78352 = biological target: DLG4_3, P78352
DVL3, Q92997 = biological target: T3, DVL3, Q92997
FRMPD2_1, Q68DX3 = biological target: FRMPD2_1, Q68DX3
GIPC2, Q8TF65 = biological target: GIPC2, Q8TF65
GORASP2, Q9H8Y8 = biological target: GORASP2, Q9H8Y8
GRIP1_5, Q9Y3R0 = biological target: T4, GRIP1_5, Q9Y3R0
GRIP2_4, Q9C0E4 = biological target: GRIP2_4, Q9C0E4
GRIP2_7, Q9C0E4 = biological target: GRIP2_7, Q9C0E4
IL16_3, Q14005 = biological target: IL16_3, Q14005
Inadl_10, Q8NI35 = biological target: Inadl_10, Q8NI35
Inadl_8, Q8NI35 = biological target: Inadl_8, Q8NI35
LIMK2, P53671 = biological target: LIMK2, P53671
LIN7C, Q9NUP9 = biological target: T5, LIN7C, Q9NUP9
LNX2_3, Q8N448 = biological target: T6, LNX2_3, Q8N448
MAST2, Q6P0Q8 = biological target: MAST2, Q6P0Q8
MPDZ_12, O75970 = biological target: T7, MPDZ_12, O75970
NHERF3_4, Q5T2W1 = biological target: T8, NHERF3_4, Q5T2W1
NHERF4_4, Q86UT5 = biological target: NHERF4_4, Q86UT5
PDZD2_2, O15018 = biological target: T9, PDZD2_2, O15018
PTPN3, P26045 = biological target: PTPN3, P26045
SCRIB_2, Q14160 = biological target: SCRIB_2, Q14160
SNTG1, Q9NSN8 = biological target: T10, SNTG1, Q9NSN8
SNTG2, Q9NY99 = biological target: T11, SNTG2, Q9NY99

MAST2, Q6P0Q8, sequence (Q6P0Q8 1099-1202): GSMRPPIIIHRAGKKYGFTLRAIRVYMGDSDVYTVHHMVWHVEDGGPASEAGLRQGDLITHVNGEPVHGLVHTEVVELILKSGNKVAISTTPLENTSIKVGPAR
IL16_3, Q14005, sequence (Q14005 1107-1207): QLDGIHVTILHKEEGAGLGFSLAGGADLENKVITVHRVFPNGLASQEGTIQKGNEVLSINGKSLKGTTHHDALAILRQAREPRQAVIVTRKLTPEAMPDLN
FRMPD2_1, Q68DX3, sequence (Q68DX3 770-861): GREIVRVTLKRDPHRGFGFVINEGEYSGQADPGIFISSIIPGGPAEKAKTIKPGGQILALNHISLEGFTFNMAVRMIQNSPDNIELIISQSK
NHERF4_4, Q86UT5, sequence (Q86UT5 464-550): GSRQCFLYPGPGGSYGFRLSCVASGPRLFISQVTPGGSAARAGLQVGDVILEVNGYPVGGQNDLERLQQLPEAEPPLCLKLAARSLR
DLG4_1, P78352, sequence (P78352 62-152): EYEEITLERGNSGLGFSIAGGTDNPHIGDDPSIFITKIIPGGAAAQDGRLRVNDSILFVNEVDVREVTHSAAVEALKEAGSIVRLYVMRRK
Inadl_8, Q8NI35, sequence (Q8NI35 1425-1530): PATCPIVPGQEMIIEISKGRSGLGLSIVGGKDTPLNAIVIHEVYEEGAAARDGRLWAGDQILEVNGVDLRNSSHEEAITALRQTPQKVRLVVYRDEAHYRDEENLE
GRIP2_7, Q9C0E4, sequence (Q9C0E4 934-1023): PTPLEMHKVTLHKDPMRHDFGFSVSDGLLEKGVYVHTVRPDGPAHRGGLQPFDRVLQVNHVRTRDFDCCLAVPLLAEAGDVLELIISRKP
PTPN3, P26045, sequence (P26045 505-587): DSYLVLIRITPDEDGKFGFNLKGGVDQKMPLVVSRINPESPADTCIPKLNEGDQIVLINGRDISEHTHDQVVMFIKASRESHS
GIPC2, Q8TF65, sequence (Q8TF65 112-203): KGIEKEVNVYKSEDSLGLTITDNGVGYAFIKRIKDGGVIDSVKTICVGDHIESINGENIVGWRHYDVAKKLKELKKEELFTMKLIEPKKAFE
Inadl_10, Q8NI35, sequence (Q8NI35 1673-1763): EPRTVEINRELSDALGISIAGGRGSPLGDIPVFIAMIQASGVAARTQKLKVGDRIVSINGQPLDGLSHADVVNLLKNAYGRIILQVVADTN
GRIP2_4, Q9C0E4, sequence (Q9C0E4 446-548): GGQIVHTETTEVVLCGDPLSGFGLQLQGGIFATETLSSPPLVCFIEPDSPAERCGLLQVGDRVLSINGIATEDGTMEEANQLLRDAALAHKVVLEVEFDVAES
LIMK2, P53671, sequence (P53671 143-248): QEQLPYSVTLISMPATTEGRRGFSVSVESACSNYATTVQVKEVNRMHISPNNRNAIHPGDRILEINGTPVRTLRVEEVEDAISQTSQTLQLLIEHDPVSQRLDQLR
DLG4_3, P78352, sequence (P78352 306-403): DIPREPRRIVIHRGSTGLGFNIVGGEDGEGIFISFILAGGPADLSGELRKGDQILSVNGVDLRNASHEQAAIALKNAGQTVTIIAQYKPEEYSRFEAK
SCRIB_2, Q14160, sequence (Q14160 857-960): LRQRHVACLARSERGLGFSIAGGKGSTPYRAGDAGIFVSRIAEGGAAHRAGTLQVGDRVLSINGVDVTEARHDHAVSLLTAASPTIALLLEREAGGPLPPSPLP

| pKd (APBA1_1, Q02410) | pKd (APBA1_2, Q02410) | pKd (DLG1_1, Q12959) | pKd (DLG4_1, P78352) | pKd (DLG4_3, P78352) | pKd (DVL3, Q92997) | pKd (FRMPD2_1, Q68DX3) | pKd (GIPC2, Q8TF65) | pKd (GORASP2, Q9H8Y8) | pKd (GRIP1_5, Q9Y3R0) | pKd (GRIP2_4, Q9C0E4) | pKd (GRIP2_7, Q9C0E4) | pKd (IL16_3, Q14005) | pKd (Inadl_10, Q8NI35) | pKd (Inadl_8, Q8NI35) | pKd (LIMK2, P53671) | pKd (LIN7C, Q9NUP9) | pKd (LNX2_3, Q8N448) | pKd (MAST2, Q6P0Q8) | pKd (MPDZ_12, O75970) | Binder | other results |
| --- | --- | --- | --- | --- | --- | --- | --- | --- | --- | --- | --- | --- | --- | --- | --- | --- | --- | --- | --- | --- | --- |
| below the threshold | 3.59 | 5.12 | 5.21 | 4.94 | below the threshold | below the threshold | 4.1 | 3.98 | below the threshold | below the threshold | below the threshold | below the threshold | below the threshold | below the threshold | below the threshold | 4.6 | below the threshold | 5.47 | below the threshold | TGLWKHETTV [ADGRA3, Q8IWK6] | pKd (NHERF3_4, Q5T2W1): below the threshold; pKd (NHERF4_4, Q86UT5): 3.87; pKd (PDZD2_2, O15018): 4.2; pKd (PTPN3, P26045): 4.5; pKd (SCRIB_2, Q14160): 4.56; pKd (SNTG1, Q9NSN8): 4.46; pKd (SNTG2, Q9NY99): 4.25 |
| below the threshold | below the threshold | below the threshold | below the threshold | below the threshold | below the threshold | below the threshold | below the threshold | below the threshold | below the threshold | below the threshold | below the threshold | below the threshold | below the threshold | below the threshold | below the threshold | below the threshold | below the threshold | 5.08 | below the threshold | EKCGKEFSEF [PRKACA, P17612] | pKd (NHERF3_4, Q5T2W1): below the threshold; pKd (NHERF4_4, Q86UT5): below the threshold; pKd (PDZD2_2, O15018): 3.68; pKd (PTPN3, P26045): 3.98; pKd (SCRIB_2, Q14160): below the threshold; pKd (SNTG1, Q9NSN8): below the threshold; pKd (SNTG2, Q9NY99): below the threshold |
| below the threshold | below the threshold | below the threshold | below the threshold | below the threshold | below the threshold | 4.1 | below the threshold | 3.93 | below the threshold | below the threshold | below the threshold | below the threshold | below the threshold | below the threshold | below the threshold | below the threshold | below the threshold | 3.82 | 3.5 | QKAPTKEFYA [SDC2, P34741] | pKd (NHERF3_4, Q5T2W1): 3.82; pKd (NHERF4_4, Q86UT5): below the threshold; pKd (PDZD2_2, O15018): below the threshold; pKd (PTPN3, P26045): 4.2; pKd (SCRIB_2, Q14160): below the threshold; pKd (SNTG1, Q9NSN8): below the threshold; pKd (SNTG2, Q9NY99): below the threshold |
